# Data from the supplement of paper PMC10567573.
# B1: ZNF449 (parent)
# chain: YRHQRLHTGERPYECTVCKKRFTR
# Variants of: B1
# Assay: protein stability index of a GFP-peptide fusion (GPS, HEK-293T) (PSI 1-6); higher = more stable
# Details: c terminus: a fixed tail appended
# 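Further: lentivirally expressed fusions sorted by FACS into six bins by GFP to DsRed ratio, PSI derived from sequencing read proportions per bin multiplied by bin number.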
row,Variant,protein stability index
1,YRHQRLHTGVRPYECTVCKKRFTR [E10V],2.4
2,YRHQRLHTGWRPYECTVCKKRFTR [E10W],2.34
3,YRHQRLHTGDRPYECTVCKKRFTR [E10D],2.28
4,YRHQRLHTGHRPYECTVCKKRFTR [E10H],2.88
5,YRHQRLHTGQRPYECTVCKKRFTR [E10Q],2.54
6,YRHQRLHTGGRPYECTVCKKRFTR [E10G],2.24
7,YRHQRLHTGFRPYECTVCKKRFTR [E10F],2.35
8,YRHQRLHTGSRPYECTVCKKRFTR [E10S],2.62
9,YRHQRLHTGRRPYECTVCKKRFTR [E10R],2.81
10,YRHQRLHTGIRPYECTVCKKRFTR [E10I],2.32
11,YRHQRLHTGCRPYECTVCKKRFTR [E10C],2.57
12,YRHQRLHTGTRPYECTVCKKRFTR [E10T],2.48
13,YRHQRLHTGPRPYECTVCKKRFTR [E10P],2.58
14,YRHQRLHTGKRPYECTVCKKRFTR [E10K],2.15
15,YRHQRLHTGNRPYECTVCKKRFTR [E10N],2.6
16,YRHQRLHTGMRPYECTVCKKRFTR [E10M],1.91
17,YRHQRLHTGYRPYECTVCKKRFTR [E10Y],3.09
18,YRHQRLHTGARPYECTVCKKRFTR [E10A],2.38
19,YRHQRLHTGLRPYECTVCKKRFTR [E10L],2.13
20,YRHQRLHTGERDYECTVCKKRFTR [P12D],2.83
21,YRHQRLHTGERVYECTVCKKRFTR [P12V],2.87
22,YRHQRLHTGERRYECTVCKKRFTR [P12R],2.98
23,YRHQRLHTGERNYECTVCKKRFTR [P12N],2.71
24,YRHQRLHTGERSYECTVCKKRFTR [P12S],2.34

row,Variant,protein stability index
1,YRHQRLHTGERQYECTVCKKRFTR [P12Q],2.2
2,YRHQRLHTGERCYECTVCKKRFTR [P12C],2.37
3,YRHQRLHTGERHYECTVCKKRFTR [P12H],2.26
4,YRHQRLHTGERKYECTVCKKRFTR [P12K],2.62
5,YRHQRLHTGERWYECTVCKKRFTR [P12W],2.44
6,YRHQRLHTGERTYECTVCKKRFTR [P12T],2.88
7,YRHQRLHTGERYYECTVCKKRFTR [P12Y],2.62
8,YRHQRLHTGERFYECTVCKKRFTR [P12F],2.19
9,YRHQRLHTGERLYECTVCKKRFTR [P12L],2.22
10,YRHQRLHTGERMYECTVCKKRFTR [P12M],2.32
11,YRHQRLHTGERGYECTVCKKRFTR [P12G],2.21
12,YRHQRLHTGERAYECTVCKKRFTR [P12A],2.54
13,YRHQRLHTGERIYECTVCKKRFTR [P12I],2.1
14,YRHQRLHTGEREYECTVCKKRFTR [P12E],2.38
15,YRHQRLHTGERPDECTVCKKRFTR [Y13D],2.11
16,YRHQRLHTGERPCECTVCKKRFTR [Y13C],3.74
17,YRHQRLHTGERPEECTVCKKRFTR [Y13E],2.63
18,YRHQRLHTGERPAECTVCKKRFTR [Y13A],2.43
19,YRHQRLHTGERPFECTVCKKRFTR [Y13F],2.86
20,YRHQRLHTGERPHECTVCKKRFTR [Y13H],2.69
21,YRHQRLHTGERPGECTVCKKRFTR [Y13G],2.55
22,YRHQRLHTGEHPYECTVCKKRFTR [R11H],2.43
23,YRHQRLHTGEMPYECTVCKKRFTR [R11M],1.79
24,YRHQRLHTGEYPYECTVCKKRFTR [R11Y],2.76

row,Variant,protein stability index
1,YRHQRLHTGEQPYECTVCKKRFTR [R11Q],2.48
2,YRHQRLHTGEGPYECTVCKKRFTR [R11G],2.71
3,YRHQRLHTGEDPYECTVCKKRFTR [R11D],2.67
4,YRHQRLHTGEPPYECTVCKKRFTR [R11P],2.33
5,YRHQRLHTGESPYECTVCKKRFTR [R11S],2.43
6,YRHQRLHTGEAPYECTVCKKRFTR [R11A],2.26
7,YRHQRLHTGEWPYECTVCKKRFTR [R11W],2.2
8,YRHQRLHTGECPYECTVCKKRFTR [R11C],3.21
9,YRHQRLHTGELPYECTVCKKRFTR [R11L],2.09
10,YRHQRLHTGETPYECTVCKKRFTR [R11T],2.1
11,YRHQRLHTGENPYECTVCKKRFTR [R11N],2.1
12,YRHQRLHTGEKPYECTVCKKRFTR [R11K],2.59
13,YRHQRLHTGEVPYECTVCKKRFTR [R11V],1.85
14,YRHQRLHTGEEPYECTVCKKRFTR [R11E],2.08
15,YRHQRLHTGEIPYECTVCKKRFTR [R11I],2.22
16,YRHQRLHTGEFPYECTVCKKRFTR [R11F],2.68
17,YRHQRLHVGERPYECTVCKKRFTR [T8V],2.29
18,YRHQRLHQGERPYECTVCKKRFTR [T8Q],2.59
19,YRHQRLHRGERPYECTVCKKRFTR [T8R],2.87
20,YRHQRLHNGERPYECTVCKKRFTR [T8N],2.56
21,YRHQRLHSGERPYECTVCKKRFTR [T8S],2.71
22,YRHQRLHWGERPYECTVCKKRFTR [T8W],2.39
23,YRHQRLHLGERPYECTVCKKRFTR [T8L],1.97
24,YRHQRLHKGERPYECTVCKKRFTR [T8K],2.19

row,Variant,protein stability index
1,YRHQRLHMGERPYECTVCKKRFTR [T8M],2.83
2,YRHQRLHPGERPYECTVCKKRFTR [T8P],2.52
3,YRHQRLHYGERPYECTVCKKRFTR [T8Y],2.22
4,YRHQRLHTFERPYECTVCKKRFTR [G9F],2.01
5,YRHQRLHTVERPYECTVCKKRFTR [G9V],2.07
6,YRHQRLHTDERPYECTVCKKRFTR [G9D],2.35
7,YRHQRLHTRERPYECTVCKKRFTR [G9R],2.45
8,YRHQRLHTIERPYECTVCKKRFTR [G9I],2.4
9,YRHQRLHTKERPYECTVCKKRFTR [G9K],2.42
10,YRHQRLHTHERPYECTVCKKRFTR [G9H],2.81
11,YRHQRLHTYERPYECTVCKKRFTR [G9Y],2.1
12,YRHQRLHTMERPYECTVCKKRFTR [G9M],2.25
13,YRHQRLHTPERPYECTVCKKRFTR [G9P],2.04
14,YRHQRLHTAERPYECTVCKKRFTR [G9A],2.26
15,YRHQRLHTQERPYECTVCKKRFTR [G9Q],2.1
16,YRHQRLHTTERPYECTVCKKRFTR [G9T],2.23
17,YRHQRLHTSERPYECTVCKKRFTR [G9S],2.33
18,YRHQRLHTNERPYECTVCKKRFTR [G9N],2.54
19,YRHQRLHTWERPYECTVCKKRFTR [G9W],1.91
20,YRHQRLHTEERPYECTVCKKRFTR [G9E],2.31
21,YRHQRLHTLERPYECTVCKKRFTR [G9L],2.21
22,YRHQRLHTCERPYECTVCKKRFTR [G9C],3.86
